According to the supplement of paper PMC9170038:

Tested on: MS2 coat protein
Assay: apparent KD of MS2 coat protein; designed switch direction (-1 OFF switch, 1 ON switch): -1; higher = weaker reporter binding
How it was run: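 Designed RNA switches sharing common flanks were transcribed on Illumina chips by stalled E. coli RNA polymerase. They were titrated with SNAP-549-labelled MS2 coat protein, from 0.7 or 1.5 nM doubling to 3 µM, in Tris-HCl pH 7.5 buffer with KCl, MgCl2, BSA, DTT, tRNA and Tween-20. Titrations ran without input, with 200 uM small-molecule ligand, or with an oligonucleotide input. The apparent KD of each design is the median over its clusters, after curve-fitting of normalised cluster fluorescence.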

[1] = Eterna round: R95, input ligand: FMN 200 uM
[2] = Eterna round: R95, input ligand: microRNA oligo, concentration not stated
[3] = Eterna round: R95, input ligand: none
[4] = input ligand: microRNA oligo, concentration not stated

Sequence | apparent KD of MS2 coat protein [1] [nM] | apparent KD of MS2 coat protein [2] [nM] | apparent KD of MS2 coat protein [3] [nM] | apparent KD of MS2 coat protein (input ligand: FMN 200 uM) [nM] | apparent KD of MS2 coat protein [4] [nM] | apparent KD of MS2 coat protein (input ligand: none) [nM]
UCUGGUCGGAAGGAUAUGGUCGGGUCAAAUCGUCCAGAAGGUCUGACAUGAGGAUCACCCAUGUGAGUCCAAAG [Ataesma] (puzzle: Exclusion 6) | 77.5 | 20.4 | 21.8 |  |  | 
AUGGACGCAGGAUAUACAUGAGGAUCACCCAUGUGAGGUUGGUAAGUAGGAAGUGAAGGUAGAAGGGCGAGAGU [JR_Exclu3_Sub098] (puzzle: Exclusion 3) | 209 | 84.2 | 76.8 |  |  | 
GCUGCAAAUGUAGGAUAUCUGCACGUUUAGUGCAGAGAAGGACAUGAGGAUCACCCAUGUAGAUCAGCAGCAAUUAAUUUAAUU [ENG1/5-A2] (Eterna round: R96, puzzle: Exclusion NG 1) |  |  |  | 480 | 40.8 | 45.2
ACCGGUGUUGCGGAUAAGCUUUUCUGCUCGUUUUAUCGCACAUGAGGAUCACCCAUGUCAUCCGUCAGCAUGCAAAC [Usveen] (puzzle: Sensor v3, turn-off variant 2) | 22.6 | 38.8 | 25.1 |  |  | 
CAUGAUUGACGAGGAUAUUGUUCUACAUGGCGACGAGAAGGCGUCUGUCACAUGAGGAUCACCCAUGUGAGUCUGGUGAAUGAG [Ex NG1 #83] (Eterna round: R96, puzzle: Exclusion NG 1) |  |  |  |  | 25.7 | 
CCUCUACAUGAGGAUCACCCAUGUGAGGAUAUGUUGACGAGCCAGAAAUGGCUGGUCAACAGAAGGCAUAUGUA [Exclusion 1 (Mod 2.1 solution 16 by Eternabot)] (Eterna round: R97, puzzle: Exclusion 1) |  |  |  | 43.7 |  | 23.7
GCACGGUUGGUAGGAUAUCCUUGCGAUUAGCAAGGAGAAGGACCACAUGAGGAUCACCCAUGUACCUCAAUUGUCCUUCCGUGC [Eli exng1 - 026] (Eterna round: R96, puzzle: Exclusion NG 1) |  |  |  | 18.5 | 13.9 | 19.3
GGUUAUUGCAAGGAUAUGCUUUUUUGUGAAAUUGCAGAAGGUGCAACAUGAGGAUCACCCAUGUUGGAUGGGUU [JR_E6_Sub017] (puzzle: Exclusion 6) |  | 93.7 |  |  |  | 
GCCAGAGCAGGAUAUUCAAUAUUCCACAUGAGGAUCACCCAUGUCCUGCGAAAGCAGGAGGGAGAAGGGCUCUGGC [Mat - Exclusion 5 - Eli mod - D91] (puzzle: Exclusion 5) |  | 56.2 |  |  |  | 
GUUAAGUGAGGAUAUGGUAAAUUAAUUAUUAAUUAAUUAAUCCAGAAGGCACAUGAGGAUCACCCAUGUAAAUG [Mat - Exclusion 4 - D87] (puzzle: Exclusion 4) | 54.6 | 30.5 | 31.5 |  |  | 
UUUUUCUCAGGAUAUACAUGAGGAUCACCCAUGUAUAUUAAAAAUAAUACAUGGGAAUGUAGAAGGGAGCUCAU [Omei Ex3 Pseudoloop 9] (Eterna round: R97, puzzle: Exclusion 3) |  |  |  | 141 |  | 161
UUUAAAUGAGGAUAUAGGAUCUUAGACAUGAGGAUCACCCAUGUGAAAUCAGACCUAGUCCUAGAAGGCGUAUGAC [Eternabot (L1) Solution 100] (Eterna round: R97, puzzle: Exclusion 5) |  |  |  | 13.5 |  | 12.4
CUCAUGUGAGGAUAUAGUACUUCUUCUAUUAUUAUUGAGUACUAGAAGGCACAUGAGGAUCACCCAUGUAGUAC [Ex4 - 3 - 44] (puzzle: Exclusion 4) |  | 23.8 |  |  |  | 
GAGAAACAUGAGGAUCACCCAUGUAAGGAUAUGGCGAGAGCUGGAGUACUAGCGCCGUUCAGAAGGUACAUGAG [Eternabot (L2) Solution 27] (Eterna round: R97, puzzle: Exclusion 1) |  |  |  | 218 |  | 95.9
CAGUACUGAGGAUAUACAUGAGGAUCACCCAUGUGUUCCAGCUAGGAAACUAGCAAAGGUAGAAGGCAGUACUG [salish99_ex3_r3_065] (puzzle: Exclusion 3) | 587 | 23.9 | 23.3 |  |  | 
ACUAUCAGAUUCUUAGGGUACAUGAGGAUCACCCAUGUGUACGUCUACGAGGGUUCGAAAAUCAAGCUCCGCUCGUC [Eternabot (L2) Solution 19] (Eterna round: R97, puzzle: Sensor, turn-off variant 1) |  |  |  | 99.2 |  | 91.8
UUAUCUACUGAGGAUAUUAUAUUACCCGACUGAUAAGAAGGCAGUACAUGAGGAUCACCCAUGUGGGUAGCCAU [Polaris11] (Eterna round: R97, puzzle: Exclusion 6) |  |  |  | 23.2 |  | 20.8
GCUGGUCAAGGAUAUACAUGAGGAUCACCCAUGUGAUCAGCAGUCCUCGGACUGCAAUGUAGAAGGUGACCAGC [E3/1-C1] (Eterna round: R97, puzzle: Exclusion 3) |  |  |  | 29.3 |  | 458

Sequence | apparent KD of MS2 coat protein [1] [nM] | apparent KD of MS2 coat protein [2] [nM] | apparent KD of MS2 coat protein [3] [nM] | apparent KD of MS2 coat protein (input ligand: FMN 200 uM) [nM] | apparent KD of MS2 coat protein [4] [nM] | apparent KD of MS2 coat protein (input ligand: none) [nM]
GAUUAACAUGAGGAUCACCCAUGUGAGGAUAUGGACUUGCCCACUUAACCAUUAGAGUCUAGAAGGCGCAUCUC [1986#28] (Eterna round: R97, puzzle: Exclusion 1) |  |  |  | 27.1 |  | 22.7
AAGGACCGUGUAGGAUAUGCACUGAAUAGGUCAGGAGGGUUCUUACACAUGAGGAUCACCCAUGUGUAGAAGGACGGAAGGUCA [Eternabot solution 25] (Eterna round: R96, puzzle: Exclusion NG 2) |  |  |  | 12.7 | 11.4 | 15.2
AGAAUUGCCCAUGGCCGCAAGCUUUUUGCUUGUCUUACCACAUGAGGAUCACCCAUGUGACAUGGGCUCCUUAUAAU [Anargees] (puzzle: Sensor v3, turn-off variant 2) | 13.9 | 9.32 | 11.8 |  |  | 
CGGUGCUGAGGAUAUACAUGAGGAUCACCCAUGUGUUCCGGCUAGCUGACUGGCGCUUGUAGAAGGCAGUACUG [JL-ex3-2.11 Brourd mod] (puzzle: Exclusion 3) |  | 16.3 |  |  |  | 
GCCUCACUUGAGGAUCACCCAAGUCAGGAUAUUCACUGAACUGCGUAACAGCUCGGCCGAAGAAGGGAUUCGGG [Leisatat] (Eterna round: R97, puzzle: Exclusion 1) |  |  |  | 80.8 |  | 78.5
AUACUCUUUGUGAGGAUAUCGUUUUCUUUACGGUUCGAGAAGGCACAUGAGGAUCACCCAUGUUUGACGUGAAU [JR_BMOE4_Sub094] (puzzle: Brourd's mod of Exclusion 4) |  | 21.2 |  |  |  | 
AACCUGAGGCUUUGCUUUAGGUGUACAUGAGGAUCACCCAUGUAGGAUAUGGUAGGCAAAGCUUACCAGAAGGACAUUUAGGUU [Mat - Exclusion NG 3 - Mod of JL - D43] (Eterna round: R96, puzzle: Exclusion NG 3) |  |  |  | 72.8 | 34.3 | 41.4
AUUAUGUGAGGAUAUUAGUAGUAAAUAAAUAAAAUUAUUACUGAGAAGGCACAUGAGGAUCACCCAUGUUCCUU [Salish 062 v6] (Eterna round: R97, puzzle: Exclusion 4) |  |  |  | 127 |  | 24.1
AGUAACUAUCACGAAAGUGAUAGUUACAAACAGGUGAAAACAUGAGGAUCACCCAUGUCCUCAUUUGCUCGUCUUAU [Sensor 3 - 8] (puzzle: Sensor v3, turn-off variant 2) | 213 | 64.5 | 240 |  |  | 
GUGAAACAUGAGGAUCACCCAUGUCAGGAUAUGCGAAUUUCAUCAAAAGAUGAAAUUUGCAGAAGGGACUGUAC [Omei Ex1 A21] (Eterna round: R97, puzzle: Exclusion 1) |  |  |  | 136 |  | 70.3
AGAGACAAUCUAGGAUAUGUGUAUGAAGAGUGCGCAGAAGGAGACAUGAGGAUCACCCAUGUACAGCGACAGAAGACGACAACC [Matt's Exclusion 2] (Eterna round: R96, puzzle: Exclusion NG 1) |  |  |  | 14.4 | 36.2 | 17.5
AAUAGUCGGUAGGAUAUCCACGGAUGACCGGCAGGAGAAGGGCCGACUUGAGGAUCACCCAAGUAUGGUCCAAC [Ortiqumate] (Eterna round: R97, puzzle: Exclusion 6) |  |  |  | 25.1 |  | 13.9
AUGAUACAUGAGGAUCACCCAUGUGAGGAUAUGAAGUUAUAAUACAUACUAUACAUCUUCAGAAGGCAUAUGUG [E1 S1 6/16] (Eterna round: R97, puzzle: Exclusion 1) |  |  |  | 229 |  | 109
UAUCGGGACUGAGGAUAUUCGUUCGAACACGAAGAAGAAGGUAGUGUCAGGGACAUGAGGAUCACCCAUGUGAUUUCAGUCCCA [JL ViennaUCT Erinle mod 4] (Eterna round: R96, puzzle: Exclusion NG 1) |  |  |  | 133 | 96.8 | 139
UGAUUGUUUACCAGAUUAUACAUGAGGAUCACCCAUGUAGAUCCUACGUGCACGUUAUACCGCUCGUCUUAUUCCCA [Sensor-V1 #75] (Eterna round: R97, puzzle: Sensor, turn-off variant 1) |  |  |  | 44.6 |  | 41.2
GACAGGGCAGGAUAUCGAGAUCCGCACAUGAGGAUCACCCAUGUUCAGUCGAAAGACUGACGAGAAGGGCCGUGUC [Omei Ex5 E4] (Eterna round: R97, puzzle: Exclusion 5) |  |  |  | 1190 |  | 1390
GAUUAUGCGAGCUUUAGGGACAUGAGGAUCACCCAUGUUCGUCUUAUUGGUCUAGGUACGCUAACAUACCUAAAUCU [JMF 4] (puzzle: Sensor v3, turn-off variant 1) | 22.6 | 37.4 | 23.4 |  |  | 
